assay: label from the status in PepcDB records
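Further: failed if final PepcDB status was selected cloned or expressed and not failed if soluble or beyond.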

Sequence	protein production
MAVNACLSPPEMMAVRPGEGVPNSKSTQGKTRLYLTKPSWIVRTQSGAKTCMKSKAKGRCVICHGSGRVDCFNCCGKGRTNCVDVEMLPRGEWPKWCKSCGGSGLSDCSRCLGTGERASFFFLWFDILIVMSSVALPAMSCRSSGEQVKEIRVCTNRTCRRQGSFQILETLTALAPPELRVTHCACLGRCGSGPNLVALPQGLILRHCATPSRAAEILFSLCGDGREASSSSAVTDALTALALTNNALSQIDAGNFSEAEALLTQALELKPYGGLHRIFKHRSVAKLGMLDYSGALEDISQALALAPNYSEPYICQGDVYVAKGQYDLAEKSYLTCLEIDPSLRRSKPFKARIAKLQQKVVELDVT	failed
MAVPRWAVRDLTQISSARELSLRLEQARNDFRATVGSICYFNASARTPGQFDDEYIMTDQSLTYVYADGVTAQSCAMNRLLPSSSSNFGAAATAIPPWLLDPPRLNRLLREGTDEGGLVNYYEGPHKNAFFLAIMRSCIFVRPGADEINGVSYDFFARSGNYTEQLEHHHHHH	failed
MAVRKLGVLTSGGDCPGLNAVIRAIARHAVGNYGWELWGIAYATQGLLKRQAIALSPHHFDRQSLDPLLCSGGTILGSINRGDTLAHQAEILAGYQELGLDALIGIGGDGSLAILRQLAEAGRWQFIGIPKTIDNDVALTERAIGFDTAIHTVAEALLSLGSTAASHDRIMIAEVMGRQSGHLALQGGIAGGADVILLPEIPYRLLELCHYLQQLRDRWQRRYAVIAIAEGTHHPPEVTQGPGSLGEQLVQAITAQDPTLDARVTVLGHVQRGGNPVASDRLLATQMGYAAVERLAAGASGEMMAWQGGRVVSVPLEAVCLQSPTLVDPHSPLVDTAAGLGIFLGDRSLTPWRGSACPTH	failed
MAVSSLGNIYCAAAGFHSVPIVICQTSCVRWRGSGRTSGAICCAECVARGSDVRAYFRGQDKDAVGKDAVAPGVGCVQPVAIGIHAGLYRWRDRLRIGIDGDHARCRPDVAHGELDVGASAVPRRGSHGHRGRARAGGLVQELSVREQPPVDHRHLRAVLRLAGAAALLTQGRNAQGAVRELVCARYRHAVSGPRQPQGRGTGATSGGCVVAPGQTVVSVSRRHPQPHRRIIAIQGRATAGCYRCWRAGGSGGAGRLRQGVAGRWPVQGAPRHHPRADRYADRCDRAGCAGSPTIDRAGTQGRGCNASPQDLSSTLMDFVVPHDHPCLPGHFPGRPVVPGVVVLDHVLQAVEALHGPRAAARLPQVKFVQPLLPGQTASVTLEGDGPRWRFRVQRADVVLVSGELVAEAGT	failed
MAVSSNGGAIKAVIYDCDGVMFDSFEANLAFYQRIMEMMGRPRLSRDNEEQMRILHTYANREVLAHFFPSPGDWEEAVRCAGAIDYRELVPLMIMEEGFREALDTLKGRVGLGVCTNRSTSMDMVLRLFSLDSYFSIVMTASRVTNPKPHPEPLLKVLEHFGIGPREALFVGDSEVDRLSAEAAGVPFVAYKAPLPAAYRMEHHREIIDLLG	not failed
MAVTSPNMPASIRWGGIVALIQSTIGFGYAFFLIYREATGETDPSIVYETDNANTWVGYGTAAFFIIVFGTVVAGAINMMKGHRWGRGAVVMLNIILLPAAYYMFIEGRFSWAIVTGISALFVLGALFNKRAVLWANNEI	failed
MAVVGFDAAKISILDENEKVTDTFTIDRSSGGTIEANISGLAPNMNVVYASNVPFYVSAKGTSEVKCELTVADLDDLGTEAVNKILGREQDSTTKITKVGVNTTPPYCVLELISKDKQGKGLFLGLLKGKFTFDGEDMKTSDNNGSQLSEDKVTMQCISRKDGYIYAKAKEADGTTQADFEKFIMPAATAPAAG	failed
MAVYHLLLSSPPSLLLLPPSPRRPNLTLIRRIPAHPRLGNSTSLLSSSSPVIRKILVRSTLREDQPIASDSESSPTLLIGEDSAAFELGKQKLVSWVYFGVVLGVVLFILNVVWIDNSTGFGKSFIDAVSNISGSPEVAMLMLILIFAIVHSGLASLRDIGEKLIGERAFRVLFAGISLPLAMSTIVYFINHRYDGSQLWQLQGVPGVHEAIWVANFVSFFFLYPSTFNLLEVAAVDKPKMHLWETGIMRITRHPQMVGQIVWCLAHTLWIGNTVAASASLGLIAHHLFGAWNGDRRLAKRYGEDFESIKKRTSVIPFAAIFEGRQVLPEDYYKEFVRLPYLAITALTVGAYFAHPLMQGASFRLHW	failed
MAVYLDKEKPVSERVEDLLSKMTLAEKCGQLNQRMYGWEAFSRDGETFHITEKFKEEVTRFEGIGALYGLFRADPWSKMNKDTGVSRKNAGKVANKIQRYVIENTRLGIPVLLAEEVPHGHQALDSESYPVNLARAASFNPELQKQVASAITEEISEKGVHLALASALDILRDPRWGRAEECYGEDPYLAAELTAAITEGFQASGKIAVILKHFAAQGEPIGGHNSGPVSIGVRELREIFLEPMRAGIRSGALGVMAAYNEIDGVPCHANKELLTTILREEMGFSGIVMADGCALDRLLKLNPDPKKAAKMALEAGVDLSLWDEVFPFLEESVEKGILDEKVVDDAVRRVLQVKFQLGLFEQPFVEEEI	failed
MAYAHVFASLTISTISLRRFLPRLHRNHSVKPNSRIICNLKLNYSAGKFREMGLSRSVELDQFITSEEEEGEAEEIGEGFFEAIEELERMTREPSDILEEMNHRLSSRELQLMLVYFAQEGRDSWCTLEVFEWLKKENRVDEEIMELMVSIMCGWVKKLIEDECNAHQVFDLLIEMDCVGLKPGFSMMDKVIALYCEMGKKESAVLFVKEVLRRRDGFGYSVVGGGGSEGRKGGPVGYLAWKFMVDGDYRKAVDMVMELRLSGLKPEAYSYLIAMTAIVKELNSLGKTLRELKRFARAGFVAEIDDHDRVLIEKYQSETLSRGLQLATWAVEEGQENDSIIGVVHERLLAMYICAGRGPEAEKQLWKMKLAGREPEADLHDIVMAICASQKEVNAVSRLLTRVEFMGSQRKKKTLSWLLRGYVKGGHFEEAAETLVSMIDSGLHPEYIDRVAVMQGMTRKIQRPRDVEAYMSLCKRLFDAGLPKTNLNDLRTSVSSYVFLKLSESEGESKAGGRNKNHRGKIVMELEDPTMADSTIKLTVKFGGKSIPLSVSPDCTVKDLKSQLQPITNVLPRGQKLIFKGKVLVETSTLKQSDVGSGAKLMLMASQGLHQGEGPILKEASIRPISRTVVSDKVDQRKPSVLVDKNRTDRWKATGVIALAQANLKEIPEEVWDCGSGVRVLDISENFIKEVPAKISSFGSMQKLFLQGNGLSDESIQWEGIASLKRLMLLSISHNNLTVLPSAMGSLTSLRQLDVTNNKLTSLPNELGLLTQLEILKANNNRITSLPESIGNCSFLMEVDLSANIISELPETFTKLRNLKTLELNNTGLKTLPSALFKMCLQLSTLGLHNTEITVEFLRQFEGYDDFDERRRTKHQKQLDFRVVGSGQFDEGADKSW	failed
MAYDGLFTKKMVESLQFLTTGRVHKINQPDNDTILMVVRQNRQNHQLLLSIHPNFSRLQLTTKKYDNPFNPPMFARVFRKHLEGGIIESIKQIGNDRRIEIDIKSKDEIGDTIYRTVILEIMGKHSNLILVDENRKIIEGFKHLTPNTNHYRTVMPGFNYEAPPTQHKINPYDITGAEVLKYIDFNAGNIAKQLLNQFEGFSPLITNEIVSRRQFMTSSTLPEAFDEVMAETKLPPTPIFHKNHETGKEDFYFIKLNQFNDDTVTYDSLNDLLDRFYDARGERERVKQRANDLVRFVQQQLHKYQNKLAKLIEEYEQSKNKDTEQLYGELITANIYRIKQGDKEVTALNYYTNEEVVIPLNPTKSPSANAQYYYKQYNRMKTRERELQHQIQLTKDNIDYFSTIEQQLHHISVHDIDEIRDELAEQGFMKQRKNQTKKKKAQ	not failed
MAYLVFAYLVGSLVAGLLFFPEVRGKDLPGGSGVFRRKGPWAALLAVAFDLGKGALVALLTPEAYLPWAGALLVAGHTWPVFFRFRGGGGIAPSLGFFLVWRPAETLWATLFGLGVAGLYHLLFWRRRRKGIYPIPFGAIFGYLLLVYTLSGEARLGALLVAGVVLLRGLQILAGRW	failed
MAYRKQLTRLKAPYLKRILLDPGRVEDWEKYPWNLPLFRGREFELEFTAPITIIVGENGTGKSTLLEAIGALAGYDEAGGGKGYMPVDHSRAIDKSGAALADNFRCHWLPKVTAGWFFRAESFYSVARYLDEAARESGATPPDFLSWSHGEGFIRFFEERCRRQGIYILDEPESALSPSRQIELLKMLRRMDQSGTAQVIMATHSPLLMACPGARLFRISRFGLEPADFRDTDHFRMLRDFSNDPDGFLAEALYEDEA	failed
MAYSYTEKKRIRKDFSKLPDVMDVPYLLAIQLDSYREFLQAGATKEQFRDVGLHAAFKSVFPIISYSGNAALEYVGYRLGEPAFDVKECVLRGVTFAVPLRVKVRLIIFDRESSNKAIKDIKEQEVYMGEIPLMTENGTFIINGTERVIVSQLHRSPGVFFDHDRGKTHSSGKLLYSARIIPYRGSWLDFEFDPKDCVFVRIDRRRKLPASVLLRALGYSTEEILNAFYATNVFHIKGETLNLELVPQRLRGEVASIDIKDGSGKVIVEQGRRITARHINQLEKAGVSQLEVPFDYLIGRTIAKAIVHPATGEIIAECNTELTLDLLAKVAKAQVVRIETLYTNDIDCGPFISDTLKIDNTSNQLEALVEIYRMMRPGEPPTKEAAETLFGNLFFSAERYDLSAVGRMKFNRRIGRTEIEGPGVLSKEDIIDVLKTLVDIRNGKGIVDDIDHLGNRRVRCVGEMAENQFRVGLVRVERAVKERLSMAESEGLMPQDLINAKPVAAAIKEFFGSSQLSQFMDQNNPLSEITHKRRVSALGPGGLTRERAGFEVRDVHPTHYGRVCPIETPEGPNIGLINSLATYARTNKYGFLESPYRVVKDSLVTDEIVFLSAIEEADHVIAQASATLNEKGQLVDELVAVRHLNEFTVKAPEDVTLMDVSPKQVVSVAASLIPFLEHDDANRALMGSNMQRQAVPTLRADKPLVGTGMERNVARDSGVCVVARRGGVIDSVDASRVVVRVADDEVETGEAGVDIYNLTKYTRSNQNTCINQRPLVSKGDVVARGDILADGPSTDMGELALGQNMRVAFMPWNGFNFEDSICLSERVVQEDRFTTIHIQELTCVARDTKLGPEEITADIPNVGEAALNKLDEAGIVYVGAEVQAGDILVGKVTPKGETQLTPEEKLLRAIFGEKASDVKDTSLRVPTGTKGTVIDVQVFTRDGVERDSRALSIEKMQLDQIRKDLNEEFRIVEGATFERLRAALVGAKAEGGPALKKGTEITDDYLDGLERGQWFKLRMADDALNEQLEKAQAYISDRRQLLDDKFEDKKRKLQQGDDLAPGVLKIVKVYLAIKRRIQPGDKMAGRHGNKGVVSVIMPVEDMPHDANGTPVDIVLNPLGVPSRMNVGQILETHLGLAAKGLGEKINRMLEEQRKVAELRKFLHEIYNEIGGREENLDELGDNEILALAKNLRGGVPMATPVFDGAKEREIKAMLKLADLPESGQMRLFDGRTGNQFERPTTVGYMYMLKLNHLVDDKMHARSTGSYSLVTQQPLGGKAQFGGQRFGEMEVWALEAYGAAYTLQEMLTVKSDDVNGRTKMYKNIVDGDHRMEAGMPESFNVLIKEIRSLG	failed
MAYVTLYPNLILEALGKVRYPGTGKDLVSAGMVEDDIRIDGNKVSFSLIFDKANDPFIKSVVKAAESAILTYISEDVNIKGNISVKSKQAIPAPPAKLLPGVKNIIAVFSGKGGVGKSTVTANLAVSLAKSGYRVGLLDADIFGPSMPKMFHCEESRPVLEEVDGRELIVPEEVMGVKILSIGFFVDPDNAVLWRGSMAGNALTQLIRDANWGELDYFLIDMPPGTSDIHLTLVQTLAITGAVVVTTPQDVALADARKGISMFVGEKINVPVLGLVENMSWFTPAELPQNKYYIFGRDGGKNLAEELNIPLLGQIPLVQGICQSGDEGIPVAVRDDSMMGIAFRELAARVVEQVDYRNEHLDPTKVVEVAHR	failed
MCDKDIYNNKEMIILNKQQVTKAIEKVLNSSKIGVLSTAHHNKPNSRYMVFYNDDLNLYTKTNVNSLKVEEIENNPDAHILLGYNETTNNSFVEIDATIEVVKDQKVIDWLWETQDKTFFNSKEDPELCVLKVIPRSIKLMNDDELDTPATIEL	not failed
